Data taken from US20260097113A1 (Pfizer, published 2026).

Experiments:
[1] = molecular target: RSV A + RSV B bivalent composition (RSV subtype A; RSV subtype B); assay: AM14 Fab titration by SEC; Target cycle; 8 M 2-8°C
[2] = molecular target: RSV A + RSV B bivalent composition (RSV subtype A; RSV subtype B); assay: AM14 Fab titration by SEC; Low-Fast cycle; 8 M 40°C
[3] = molecular target: RSV A + RSV B bivalent composition (RSV subtype A; RSV subtype B); assay: AM14 Fab titration by SEC; High-Slow 1 cycle; T0 (second value)
[4] = molecular target: RSV A + RSV B bivalent composition (RSV subtype A; RSV subtype B); assay: AM14 Fab titration by SEC; Target cycle; 1 M 40°C (second value)
[5] = molecular target: RSV A + RSV B bivalent composition (RSV subtype A; RSV subtype B); assay: AM14 Fab titration by SEC; Low-Fast cycle; 3 M 40°C (second value)
[6] = molecular target: RSV A + RSV B bivalent composition (RSV subtype A; RSV subtype B); assay: AM14 Fab titration by SEC; High-Slow 1 cycle; 1 M 40°C (second value)
[7] = molecular target: RSV A + RSV B bivalent composition (RSV subtype A; RSV subtype B); assay: AM14 Fab titration by SEC; composition of Table 17; Pre-lyo Prep 2, T0
[8] = molecular target: RSV A + RSV B bivalent composition (RSV subtype A; RSV subtype B); assay: AM14 Fab titration by SEC; composition of Table 14; Cumulative Aggressive (High-Slow) cycle
[9] = molecular target: T1, RSV F protein of subtype A comprising a polypeptide of SEQ ID NO: 1 and a polypeptide of SEQ ID NO: 2 (RSV subtype A, UniProt P11209 137-513; P03420 26-109); assay: AM14 ELISA; F2 (pH 8, 0 mM NaCl, 0% sucrose); 2 wk 25°C
T1 construct: Stabilized prefusion F trimer made of three F2-F1 heterodimers; Produced recombinantly in CHO cells; also called RSV A; RSVA
T1 chain 1: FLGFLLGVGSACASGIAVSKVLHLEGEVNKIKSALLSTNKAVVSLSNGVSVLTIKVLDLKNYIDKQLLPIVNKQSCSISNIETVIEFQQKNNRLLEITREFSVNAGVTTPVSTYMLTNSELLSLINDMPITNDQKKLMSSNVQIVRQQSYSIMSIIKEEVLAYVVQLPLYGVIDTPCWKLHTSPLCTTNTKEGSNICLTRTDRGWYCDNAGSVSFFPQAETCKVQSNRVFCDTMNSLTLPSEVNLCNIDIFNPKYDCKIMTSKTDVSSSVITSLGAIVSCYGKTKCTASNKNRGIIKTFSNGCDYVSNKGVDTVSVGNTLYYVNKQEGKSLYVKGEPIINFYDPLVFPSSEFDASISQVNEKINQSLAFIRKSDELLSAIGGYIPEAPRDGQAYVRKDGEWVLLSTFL
T1 chain 2: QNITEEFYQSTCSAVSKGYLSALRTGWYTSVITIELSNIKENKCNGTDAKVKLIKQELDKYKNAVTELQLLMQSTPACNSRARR

[10] = molecular target: T1, RSV F protein of subtype A comprising a …; assay: AM14 ELISA; F1 (pH 8, 100 mM NaCl, 0% sucrose); 2 wk 5°C
[11] = molecular target: T1, RSV F protein of subtype A comprising a …; assay: AM14 ELISA; F7 (pH 6, 100 mM NaCl, 0% sucrose); 1 wk 5°C
[12] = molecular target: T1, RSV F protein of subtype A comprising a …; assay: AM14 ELISA; F6 (pH 7, 0 mM NaCl, 4.5% sucrose); 1 wk 25°C
[13] = molecular target: T1, RSV F protein of subtype A comprising a …; assay: AM14 ELISA; F9 (pH 8, 50 mM NaCl, 4.5% sucrose); 2 wk 5°C
[14] = molecular target: T1, RSV F protein of subtype A comprising a …; assay: AM14 ELISA; F10 (pH 7, 50 mM NaCl, 4.5% sucrose); 2 wk 5°C
[15] = molecular target: T1, RSV F protein of subtype A comprising a …; assay: AM14 ELISA; F4 (pH 6, 50 mM NaCl, 4.5% sucrose); 2 wk 25°C
[16] = molecular target: T1, RSV F protein of subtype A comprising a …; assay: AM14 ELISA; F11 (pH 7, 50 mM NaCl, 9.0% sucrose); 1 wk 25°C
[17] = molecular target: T1, RSV F protein of subtype A comprising a …; assay: AM14 ELISA; F19 (pH 7, 50 mM NaCl, 3% trehalose + 3% mannitol); T0
[18] = molecular target: T1, RSV F protein of subtype A comprising a …; assay: AM14 ELISA; F19 (pH 7, 50 mM NaCl, 3% trehalose + 3% mannitol); 1 wk 25°C

Molecule	Prefusion Content (%) [1] [%]	Prefusion Content (%) [2] [%]	Prefusion Content (%) [3] [%]	Prefusion Content (%) [4] [%]	Prefusion Content (%) [5] [%]	Prefusion Content (%) [6] [%]	Prefusion Content (%) [7] [%]	Prefusion Content (%) [8] [%]	AM14 prefusion content (%), relative to standard [9] [%]	AM14 prefusion content (%), relative to standard [10] [%]	AM14 prefusion content (%), relative to standard [11] [%]	AM14 prefusion content (%), relative to standard [12] [%]	AM14 prefusion content (%), relative to standard [13] [%]	AM14 prefusion content (%), relative to standard [14] [%]	AM14 prefusion content (%), relative to standard [15] [%]	AM14 prefusion content (%), relative to standard [16] [%]	AM14 prefusion content (%), relative to standard [17] [%]	AM14 prefusion content (%), relative to standard [18] [%]
AM14 Fab	73	63	68	66	66	46	81	64										
AM14 (trimeric prefusion specific antibody of the AM14 ELISA) (antibody, V domains shown, Antibody as used in the AM14 ELISA, detected with an HRP-labeled secondary antibody) VH: EVQLVESGGGVVQPGRSLRLSCAASGFSFSHYAMHWVRQAPGKGLEWVAVISYDGENTYYADSVKGRFSISRDNSKNTVSLQMNSLRPEDTALYYCARDRIVDDYYYYGMDVWGQGATVTVSS VL: DIQMTQSPSSLSASVGDRVTITCQASQDIKKYLNWYHQKPGKVPELLMHDASNLETGVPSRFSGRGSGTDFTLTISSLQPEDIGTYYCQQYDNLPPLTFGGGTKVEIKR									56	100	61	102	92	71	86	91	93	75
